{"source": "patent US20200270362A1", "about": "(HARPOON THERAPEUTICS, published 2020)", "binders": {"B1": {"name": "human CD3ε (receptor, UniProt P07766 23-126, looked up)", "chain": "DGNEEMGGITQTPYKVSISGTTVILTCPQYPGSEILWQHNDKNIGGDEDDKNIGSDEDHLSLKEFSELEQSGYYVCYPRGSKPEDANFYLYLRARVCENCMEMD", "notes": "also called human CD3c (so in the source)"}}, "biological_target": "T1, TriTAC 75", "T1 construct": "Single-chain MSLN/albumin/CD3 trispecific protein, 6xHis", "T1 sequence (chain, as listed by the source)": "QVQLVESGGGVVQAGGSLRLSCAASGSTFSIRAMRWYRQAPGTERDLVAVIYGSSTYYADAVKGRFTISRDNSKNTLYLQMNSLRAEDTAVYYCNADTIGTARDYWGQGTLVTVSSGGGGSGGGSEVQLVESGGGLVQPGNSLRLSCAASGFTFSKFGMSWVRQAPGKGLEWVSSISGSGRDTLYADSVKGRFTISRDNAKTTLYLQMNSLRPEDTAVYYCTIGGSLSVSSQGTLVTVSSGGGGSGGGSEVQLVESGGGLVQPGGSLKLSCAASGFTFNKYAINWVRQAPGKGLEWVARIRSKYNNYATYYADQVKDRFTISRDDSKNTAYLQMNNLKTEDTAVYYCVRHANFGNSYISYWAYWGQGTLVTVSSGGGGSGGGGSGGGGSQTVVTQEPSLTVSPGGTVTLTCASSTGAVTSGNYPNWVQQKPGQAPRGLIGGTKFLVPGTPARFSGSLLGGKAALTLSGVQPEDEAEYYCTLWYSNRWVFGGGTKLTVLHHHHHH", "assay": "Affinity measurement, method not stated; row 'Kd huCD3E' (faint print)"}
{"binder": "B1", "values": [{"measurement": "Kd", "value": 10, "unit": "nM"}]}
